Assay results published in patent US20130202593A1.

Columns and labels:
[1] = molecular target: IgG; test: steady-state fluorescence titration (quenching of TRIM21 tryptophan fluorescence on titration of IgG)
[2] = molecular target: IgG; test: fluorescence titration spectroscopy
[3] = molecular target: ΔRING-ΔBOX TRIM21 (human) (UniProt P19474); test: steady-state fluorescence titration: quenching of intrinsic TRIM21 tryptophan fluorescence on titration of IgG
[4] = molecular target: recombinant full-length TRIM21 (human) (UniProt P19474); test: as above

| Substance | Kd [1] [nM] | Kd [2] [nM] | EC50 (read off the curve) [3] [nM] | EC50 (read off the curve) [4] [nM] |
| --- | --- | --- | --- | --- |
| ΔRING-ΔBOX TRIM21 (from UniProt P19474 129-475) (receptor) | 0.9 | < 1 |  |  |
| IgG (antibody) |  |  | 3 | 1 |
| recombinant full-length TRIM21 (from UniProt P19474 1-475) (receptor) | 0.6 | < 1 |  |  |
